Data reported in paper PMC3999984.

What was measured:
[1] = molecular target: pT18c-Zip (leucine zipper fragment encoded by control plasmid pUT18C-zip); assay: two-hybrid; bacterial adenylate cyclase two-hybrid (BACTH) in cya- E. coli BTH101; bait RbaW, preys in pKNT25 or pKT25; β-galactosidase activity (units mg^-1 dry weight) of 3 replicate co-transformants
[2] = molecular target: pT18c-RbaW (RbaW in BACTH vector pUT18c) (Rhodobacter capsulatus); assay: as above

β-galactosidase activity [1] | β-galactosidase activity [2] | Substance
7340 units mg^-1 |  | KT-Zip (leucine zipper fragment encoded by control plasmid pKT25-zip) (domain or fragment)
 | 1440 units mg^-1 | pKNT25-RbaV (RbaV in BACTH vector pKNT25) (natural protein)
